T1: Pep 4 (synthetic Phl p 1-derived peptide) (Phleum pratense (timothy grass))
T1 chain: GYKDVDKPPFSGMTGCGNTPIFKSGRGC

B1: ScFv 25VH/25VL (ScFv engineered from the V regions of the Phl p 1-specific IgE Fab clone 25) (scFv, V domains shown)
VH: LESGGGLVQPGGSLRLSCAASGFTFDDHAMHWVRQTPEKGLQWVSGISWNSGVVAYADSVKGRFSISRDNAKNSLYLQMNNLIPEDTAVYYCVRDFRAASPYFFDYWGQGTRVTVSS
VL: ELTQSPSSLSASVGDRVTITCRASQSIGNYLNWYQQKPGKAPNLLIYAASSLQSGVPSRFSGSGSGTDFTLTISSLQREDFATYYCQQSNRTPITFGQGTRLEIK
B2: P1 IgG1 (complete human monoclonal IgG1 Ab with the V regions of IgE Fab clone 25) (antibody, V domains shown)
VH: LESGGGLVQPGGSLRLSCAASGFTFDDHAMHWVRQTPEKGLQWVSGISWNSGVVAYADSVKGRFSISRDNAKNSLYLQMNNLIPEDTAVYYCVRDFRAASPYFFDYWGQGTRVTVSS
VL: ELTQSPSSLSASVGDRVTITCRASQSIGNYLNWYQQKPGKAPNLLIYAASSLQSGVPSRFSGSGSGTDFTLTISSLQREDFATYYCQQSNRTPITFGQGTRLEIK

Biological target: T1, Pep 4 (synthetic Phl p 1-derived …)
Assay: ELISA

Binder	binding result
B1	no binding
B2	no binding

From PMC4476238 (Journal of immunology (Baltimore, Md. : 1950), 2015)
